According to a protein production outcome set (Wang et al. 2014):

Assay: label from the status in PepcDB records

| Sequence | protein production |
| --- | --- |
| MSKVDTIQEKLIPPIMKFANSKIITAIKDGVIITMPLTLVGSIFLLIANFPIKSWNSWMTAIFGPNWAVPLTQVSGSTFDIMAIAAVIGIAAQYSKNEGQDPVTAGLLGAVAFLIIMPSYSPINIGDKVGGIVMKHADKVQSVIPKAWTGGKGMIAALIIGVLTGYIYSWFLKRDIRIKLPESVPSGVSNAFSALIPGAVIITGSMLIFIFFNIVTGATALEWIYKVLQIPLQGITDSLGGAIAIPFVISFFWWFGVHGATLIGGVMNSIYQANTLANQDVFKAGHKLIASGAGKNAHIVCQQFQDNFVTLGGSGITLGLVAACFLFARSQRLKQLGKLALVPGCFNINEPVLFGLPIVLNPLMFIPFLICPLVSGILTYFAIYTGLVPCFTAVQAIWTTPPVLSGLIVAGWRGAVLQLIIIAIAAIVYFPFFKSLDKQYYQEEISGEAE | failed |
| MSKVNQQDIDKLIELVGGRGNIATVSHCITRLRFVLNDPAIARPKEIEQLRMVKGCFTNAGQFQVVIGTEVGDYYKALLATTGQTSADKEQVKQA | not failed |
| MSLALLLGYELPLTGANAAYGRVFQEAARLQLDRFNAAGGVGGRPVDILYADSRDDADQARTIARAFVDDPRVVGVLGDFSSTVSMAAGSIYGKEGMPQLSPTAAHPDYIKISPWQFRAITTPAFEGPNNAAWMIGDGFTSVAVIGVTTDWGLSSAQAFRKAFELRGGAVVVNEEVPPGNRRFDDVIDEIEDEAPQAIYLAMAYEDAAPFLRALRARGSALPVYGSSALYSPKFIDLGGPAVEGVRLATAFVLGASDPVVVEFVSAYETLYGAIPTLFAAHGYDAVGIMLAAVGRAGPEVTRESLRDALAATDRYAGVTGITRFDPETRETTKILTRLVVREGDFRVIDREGHHHHHH | not failed |
| MSLAMQDFRPGVYRHYKGDHYLALGLARADETDEVVVVYTRLYARAGLPMSTRLLRIWNETVDTGAGPQPRFAYVGHVTPEQGEGHHHHHH | not failed |
| MSLAPRPRILICEDDPDIARLLNLMLEKGGFDSDMVHSAAQALEQVARRPYAAMTVDLNLPDQDGVSLIRALRRDSRTRDLAIVVVSANAREGELEFNSQPLAVSTWLEKPIDENLLILSLHRAIDNMAEGKEGHHHHHH | not failed |
| MSLATQQLGIIGLFVPTFFGSYYGTILKQTDLELRAVHRHVVVATGCGESTPREQALEAVRFLIGRDCDGVVVISHDLHDEDLDELHRMHPKMVFLNRAFDALPDASFCPDHRRGGELAAATLIEHGHRKLAVISGPFTASDNVERLDGFFDELARHGIARDSVPLIESDFSPEGGYAATCQLLESKAPFTGLFCANDTMAVSALARFQQLGISVPGDVSVIGYDDDYSAAYAAPALTSVHIPTAELTQNAVRWLINQCYGTKWEIFREFPVTVSMRASVAREGHHHHHH | not failed |
| MSLAWLISEFASVGDVTVRALRYYDKINLLKPSDYTEGGHRLYTKDDLYVLQQIQSFKHLGFSLGEIQNIILQRDIETEVFLRQMHFQREVLLAEQERIAKVLSHMDEMTKKFQKEERVNVALFSSFLQTFIWEKENKEGHHHHHH | not failed |
| MSLDFRSADFLRTHISDTMAFYHPRCIDSAGGFFHYFRDDGSIYNATHRHLVSSTRFVFNYAMAYLQFGTAEYLDAVHHGLSYVRDVHRNPATGGYAWTLCDDRVEDDTNHCYGLAFVMLAYSCGLKVGIKQAREWMDETWCLLERHFWDAEYGLYKDEADAQWNFTRYRGQNANMHMCEAMLAAYEASGEQRYLERALVLADRITRRQAAKADGLVWEHYDMRWEVDWDYNRDNPKHLFRPWGFQPGHQTEWAKLLLILDRYIEVEWLVPVARSLFDVAVARSWDAVRGGLCYGFAPDGTICDDDKYFWVQAESLAAAALLATRSGDERYWQWYDRLWAYAWQHMVDHRYGAWYRLLDGDNRKYNDEKSPAGKTDYHTMGACHEVLNVVWTKSEGHHHHHH | not failed |
| MSLDIQSLDIQCEELSDARWAELLPLLQQCQVVRLDDCGLTEARCKDISSALRVNPALAELNLRSNELGDVGVHCVLQGLQTPSCKIQKLSLQNCCLTGAGCGVLSSTLRTLPTLQELHLSDNLLGDAGLQLLCEGLLDPQCRLEKLQLEYCSLSAASCEPLASVLRAKPDFKELTVSNNDINEAGVRVLCQGLKDSPCQLEALKLESCGVTSDNCRDLCGIVASKASLRELALGSNKLGDVGMAELCPGLLHPSSRLRTLWIWECGITAKGCGDLCRVLRAKESLKELSLAGNELGDEGARLLCETLLEPGCQLESLWVKSCSFTAACCSHFSSVLAQNRFLLELQISNNRLEDAGVRELCQGLGQPGSVLRVLWLADCDVSDSSCSSLAATLLANHSLRELDLSNNCLGDAGILQLVESVRQPGCLLEQLVLYDIYWSEEMEDRLQALEKDKPSLRVIS | not failed |
| MSLDKVLVGYWHNWKSTGKDGYKGGSSADFNLSSTQEGYNVINVSFMKTPEGQTLPTFKPYNKTDTEFRAEISKLNAEGKSVLIALGGADAHIELKKSQESDFVNEIIRLVDTYGFDGLDIDLEQAAIEAADNQTVIPSALKKVKDHYRKDGKNFMITMAPEFPYLTSSGKYAPYINNLDSYYDFINPQYYNQGGDGFWDSDLNMWISQSNDEKKEDFLYGLTQRLVTGTDGFIKIPASKFVIGLPSNNDAAATGYVKDPNAVKNALNRLKASGNEIKGLMTWSVNWDAGTNSNGEKYNNTFVNTYAPMLFNNEGHHHHHH | not failed |
| MSLDLSLNNLYSISTVELIQAFANTPASVTSLNLSGNSLGFKNSDELVQILAAIPANVTSLNLSGNFLSYKSSDELVKTLAAIPFTITVLDLGWNDFSSKSSSEFKQAFSNLPASITSLNLRGNDLGIKSSDELIQILAAIPANVNSLNLRGNNLASKNCAELAKFLASIPASVTSLDLSANLLGLKLEHHHHHH | failed |
| MSLDMSPVQGKLDGRIRAQNPEEFLERLSQEYHFQWFVYNDTLYVSPSSEHTSARIEVSPDAVDDLQTALTDVGLLDKRFGWGSLPDEGVVLVRGPAKYVEFVRDYSKKVEKPDEKADKQDVVVLPLKYANAADRTIRYRDQQLVVAGVASILQELLESRSRGESIDSVNLLPGQGSSVANSTGVAAAGLPYNLGSNGIDTGALQQGIDRVLNFNSKKTAKGHASGKANIRVSADVRNNSVLIYDLPERKAMYQKLVKELDVPRNLIEIDAVILDIDRNELAELSSRWNFNAGSVGGGANLFDAGTSSTLFLQNASKFSAELHALEGNGSASVIGNPSILTLENQPAVIDLSRTEYLTATSERAADILPITAGTSLQVIPRSLDNDGKPQVQMIVDIEDGQIDVSTINDTQPSVRRGNVSTQAVIAEHGSLVIGGFHGLEANDRIHKIPLLGDIPYIGKLLFQSRSRELSQRERLFILTPRLIGDQVNPARYVQNGNPHDVDDQMKKIKERRDGGELPTRGDIQKVFTQMIDGAAPEGLRAGQTLPFETDSLCDPGEGLTLDGQRSQWFVKKDWGVAVVVARNNTDKPVRIDESRCGGRWVIGVAAWPHAWLQPGEESEVYIAVRQPQISKMAKESRPSLLRGAKP | failed |
| MSLDPAHTPDPAHPHDQEAAHAEDPARAIGSARLLDVDPLLDDPGTRIVVCCGSGGVGKTTTAAALGLRAAERGRKVVVLTIDPARRLAQSMGIDSLDNIPRRVKGIDDSASGELHAMMLDMKRTFDEIVEAHADRERAAAILSNPFYQSLSAGFAGTQEYMAMEKLGQLRARDEWDLIIVDTPPSRSALDFLDAPKRLGSFLDGKLIRLLTAPAKLGGRAGMKFLNVGMSMMTGTLGKLLGGQLLKDVQTFVAAMDTTFGGFRTRADATYKLLQAPGTAFLVVAAPERDALREAAYFVERLAAEDMPLAGLVLNRVHGSGAAQLSAERALAAAENLDLAADPGSTENLEESRIVDQEGGKAGLRNSPDTYGSSESPADLTPADQTPASSEGSPATDGAVEQLTAGLLILHAERMQLLSREQRTRDRFAALHPEVAVAEVAALPGDVHDLTGLRDIGDRLAANRPELPTSPGGALEHHHHHH | not failed |
| MSLDSKTAPAFSLPDLHGKTVSNADLQGKVTLINFWFPSCPGCVSEMPKIIKTANDYKNKNFQVLAVAQPIDPIESVRQYVKDYGLPFTVMYDADKAVGQAFGTQVYPTSVLIGKKGEILKTYVGEPDFGKLYQEIDTAWRNSDAEGHHHHHH | not failed |
| MSLDVLTNFAQIQSFTALAIGIMIGLAALGAGLGLAIMAGKFLESAARQPELIPLLQVRMFIAAGLIDAAFIISVAVGLLLAFANPLSSTLLVAVSKALAG | failed |
